According to publication PMC9204724 (iScience, 2022):
Read-outs that look alike come from different tables or passages of the source.

How the values were obtained:
[1] = biological target: β-actin–Tpm1.6 cofilament (human) (UniProt P60709)
[2] = biological target: β-actin–Tpm3.1 cofilament (human) (UniProt P60709)
[3] = biological target: β-actin–Tpm2.1 cofilament (human) (UniProt P60709)
[4] = biological target: β-actin–AcTpm2.1 cofilament (human) (UniProt P60709)
[5] = biological target: β-actin–AcTpm1.6 cofilament (human) (UniProt P60709)
[6] = biological target: β-actin–AcTpm3.1 cofilament (human) (UniProt P60709)
[7] = biological target: β-actin–AcTpm4.2 cofilament (human) (UniProt P60709)
[8] = biological target: β-actin–Tpm4.2 cofilament (human) (UniProt P60709)
[9] = biological target: α-actin–Tpm3.1 cofilament (chicken | human) (UniProt P68139); test: stopped-flow kinetics
[10] = biological target: α-actin–Tpm1.7 cofilament (chicken | human) (UniProt P68139); test: stopped-flow kinetics
[11] = biological target: chicken skeletal muscle α-actin, filamentous (chicken) (UniProt P68139); test: stopped-flow kinetics
[12] = biological target: T1, acto-Myo1C^0-ΔTH1 (no Tpm) (Homo sapiens, UniProt O00159); type: binding
[13] = biological target: T1, acto-Myo1C^0-ΔTH1 (no Tpm); test: stopped-flow, pyrene-actin fluorescence, K0.[…] of fast phase vs [ATP]; type: binding
[14] = biological target: human β-actin, filamentous (human) (UniProt P60709)

T1 sequence (O00159 36-891, stated change not applied): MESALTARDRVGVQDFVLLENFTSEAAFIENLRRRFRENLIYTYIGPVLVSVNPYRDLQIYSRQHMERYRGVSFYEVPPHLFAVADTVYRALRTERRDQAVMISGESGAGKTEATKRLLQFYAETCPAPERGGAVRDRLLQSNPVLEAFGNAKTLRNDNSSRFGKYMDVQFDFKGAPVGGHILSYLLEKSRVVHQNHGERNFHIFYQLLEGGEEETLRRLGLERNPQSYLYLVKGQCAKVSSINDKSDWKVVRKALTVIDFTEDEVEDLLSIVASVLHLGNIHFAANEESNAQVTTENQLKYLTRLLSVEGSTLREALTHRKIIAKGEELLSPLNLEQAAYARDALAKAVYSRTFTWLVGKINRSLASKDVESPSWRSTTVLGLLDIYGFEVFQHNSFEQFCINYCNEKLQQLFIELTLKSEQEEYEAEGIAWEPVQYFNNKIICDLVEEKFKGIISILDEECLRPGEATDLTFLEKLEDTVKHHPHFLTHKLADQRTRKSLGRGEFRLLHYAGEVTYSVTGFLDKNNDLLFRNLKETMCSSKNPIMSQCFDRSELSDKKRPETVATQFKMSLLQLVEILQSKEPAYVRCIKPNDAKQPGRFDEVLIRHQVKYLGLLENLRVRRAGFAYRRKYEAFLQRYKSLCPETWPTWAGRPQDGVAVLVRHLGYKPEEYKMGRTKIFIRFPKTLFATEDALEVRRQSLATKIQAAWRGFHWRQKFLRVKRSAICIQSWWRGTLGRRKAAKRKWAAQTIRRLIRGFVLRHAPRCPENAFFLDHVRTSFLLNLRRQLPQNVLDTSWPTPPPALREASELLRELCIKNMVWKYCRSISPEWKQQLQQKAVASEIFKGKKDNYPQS

## human non-muscle myosin-2A heavy meromyosin (NM-2A-HMM) with essential and regulatory light chains, phosphorylated (from UniProt P35579-1;P60660-1;O14950) (complex)
[1]
  Kapp of the actin-activated steady-state ATPase (Michaelis–Menten fit, 30 °C): 27.8 µM
  kcat/Kapp of the actin-activated steady-state ATPase (30 °C): 12400 M⁻¹ s⁻¹
[2]
  Kapp of the actin-activated steady-state ATPase (Michaelis–Menten fit, 30 °C): 19.6 µM
  kcat/Kapp of the actin-activated steady-state ATPase (30 °C): 29100 M⁻¹ s⁻¹
[3]
  Kapp of the actin-activated steady-state ATPase (Michaelis–Menten fit, 30 °C): 37.8 µM
  kcat/Kapp of the actin-activated steady-state ATPase (30 °C): 10200 M⁻¹ s⁻¹
[4]
  Kapp of the actin-activated steady-state ATPase (Michaelis–Menten fit, 30 °C): 40.9 µM
[5]
  Kapp of the actin-activated steady-state ATPase (Michaelis–Menten fit, 30 °C): 17.7 µM
  kcat/Kapp of the actin-activated steady-state ATPase (30 °C): 17400 M⁻¹ s⁻¹
[6]
  Kapp of the actin-activated steady-state ATPase (Michaelis–Menten fit, 30 °C): 26.6 µM
[7]
  Kapp of the actin-activated steady-state ATPase (Michaelis–Menten fit, 30 °C): 26.1 µM
  kcat/Kapp of the actin-activated steady-state ATPase (30 °C): 23400 M⁻¹ s⁻¹
[8]
  Kapp of the actin-activated steady-state ATPase (Michaelis–Menten fit, 30 °C): 26.2 µM
  kcat/Kapp of the actin-activated steady-state ATPase (30 °C): 11200 M⁻¹ s⁻¹

## human Myo1C^0-ΔTH1, tail truncated myosin-1C isoform C^0, co-produced with calmodulin (from UniProt P0DP23 1-149) (complex)
[9]
  Kd: 18.4 nM
  kon: 1.36e+06 M⁻¹ s⁻¹
[10]
  Kd: 19.6 nM
  kon: 1.33e+06 M⁻¹ s⁻¹
[11]
  Kd: 13.7 nM
  kon: 1.46e+06 M⁻¹ s⁻¹

## Nc1ncnc2c1ncn2[C@@H]1O[C@H](COP(=O)(O)OP(=O)(O)O)[C@@H](O)[C@H]1O [ADP]
[12]
  Kd: 460 ± 80 nM

## Nc1ncnc2c1ncn2[C@@H]1O[C@H](COP(=O)(O)OP(=O)(O)OP(=O)(O)O)[C@@H](O)[C@H]1O [ATP]
[13]
  Kd: 154000 ± 31000 nM

## human tropomyosin Tpm1.8, non-acetylated (natural protein)
[14]
  Tdiss: 41.6 °C
